The subject of series [1] is P09493. Kind of series: viscosity measurement; falling ball microviscometer, 20 °C; Tpm 1.0 mg/mL (15 µM) with TnT1 at molar ratio 1/1; 30 mM HEPES-Na pH 7.3, 100 mM NaCl, 4 mM DTT; excess viscosity over buffer. Conditions: other: viscosity measurement.
Series [2] concerns P09493. Kind of series: viscosity measurement; falling ball microviscometer, 20 °C; Tpm 1.0 mg/mL (15 µM), without TnT1; 30 mM HEPES-Na pH 7.3, 100 mM NaCl, 4 mM DTT; excess viscosity over buffer as read-out of the end-to-end overlap junction of Tpm dimers. Conditions: other: viscosity measurement.
For series [3], the target named is Human Tpm1.1 (α-Tpm) K15N (human) (UniProt P09493). Kind of series: ITC; MicroCal PEAQ-ITC, 25 °C; 30 mM HEPES-Na pH 7.3, 100 mM NaCl, 1 mM DTT; sample in the cell 30 to 60 µM, ligand in the syringe 200 to 700 µM; one set of binding sites. Background: ITC needs no label: the signal is the heat of the interaction.
Human Tpm1.1 (α-Tpm) K15N (human), sequence (P09493 other isoform, or with tags, fused parts or gaps K15N | K15N): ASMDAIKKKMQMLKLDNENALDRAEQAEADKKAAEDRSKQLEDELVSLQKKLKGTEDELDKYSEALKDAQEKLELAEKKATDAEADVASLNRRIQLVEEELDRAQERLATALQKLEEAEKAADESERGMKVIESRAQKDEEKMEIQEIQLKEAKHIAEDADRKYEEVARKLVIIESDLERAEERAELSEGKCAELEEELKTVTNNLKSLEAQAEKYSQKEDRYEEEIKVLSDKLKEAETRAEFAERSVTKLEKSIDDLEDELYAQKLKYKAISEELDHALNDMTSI
The target in series [4] is Tropomyosin C-terminal fragment Tpm WT 134–284 (human) (UniProt P09493). The description is as above.
Tropomyosin C-terminal fragment Tpm WT 134–284 (human), sequence (P09493 134-284): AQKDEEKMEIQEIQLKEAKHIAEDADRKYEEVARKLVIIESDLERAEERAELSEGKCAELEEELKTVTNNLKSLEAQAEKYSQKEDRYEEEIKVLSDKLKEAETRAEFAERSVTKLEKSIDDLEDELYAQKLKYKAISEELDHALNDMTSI
Series [5] deals with Premixed complex of Tpm WT 1–133 and Tpm WT 134–284 (human) (UniProt P09493). The description is as above.
Premixed complex of Tpm WT 1–133 and Tpm WT 134–284 (human), sequence (P09493 other isoform, or with tags, fused parts or gaps, chain 1 of 2): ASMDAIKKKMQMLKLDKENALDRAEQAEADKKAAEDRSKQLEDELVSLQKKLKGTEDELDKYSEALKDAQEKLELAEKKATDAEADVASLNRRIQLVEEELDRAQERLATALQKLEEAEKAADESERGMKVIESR
Premixed complex of Tpm WT 1–133 and Tpm WT 134–284 (human), sequence (P09493 134-284, chain 2 of 2): as the sequence (P09493 134-284) above
The target of series [6] is Human Tpm1.1 (α-Tpm) M281T (human) (UniProt P09493). The series is described as above.
Human Tpm1.1 (α-Tpm) M281T (human), sequence (P09493 other isoform, or with tags, fused parts or gaps M281T | M281T): as the sequence (P09493 other isoform, or with tags, fused parts or gaps K15N | K15N) above, with N17K, M283T counted along it
Series [7] deals with Human Tpm1.1 (α-Tpm) I284V (human) (UniProt P09493). The series is described as above.
Human Tpm1.1 (α-Tpm) I284V (human), sequence (P09493 other isoform, or with tags, fused parts or gaps I284V | I284V): as the sequence (P09493 other isoform, or with tags, fused parts or gaps K15N | K15N) above, with N17K, I286V counted along it
Series [8] has as its target Human Tpm1.1 (α-Tpm) WT (human) (UniProt P09493). The description is as above.
Series [9] addresses Human Tpm1.1 (α-Tpm) M8R (human) (UniProt P09493). The description is as above.
In series [10] the target is Human Tpm1.1 (α-Tpm) A277V (human) (UniProt P09493). Described as above.
Human Tpm1.1 (α-Tpm) A277V (human), sequence (P09493 other isoform, or with tags, fused parts or gaps A277V | A277V): as the sequence (P09493 other isoform, or with tags, fused parts or gaps K15N | K15N) above, with N17K, A279V counted along it
Series [11] deals with Premixed complex of TnT1 and Tpm WT 134–284 (human) (UniProt P09493). Described as above.

Human Tpm1.1 (α-Tpm) M8R (human), sequence (P09493 other isoform, or with tags, fused parts or gaps M8R): as the sequence (P09493 other isoform, or with tags, fused parts or gaps K15N | K15N) above, with M10R, N17K counted along it
Human Tpm1.1 (α-Tpm) WT (human), sequence (P09493 other isoform, or with tags, fused parts or gaps): as the sequence (P09493 other isoform, or with tags, fused parts or gaps K15N | K15N) above, with N17K counted along it

Regarding Human Tpm1.1 (α-Tpm) WT, the results for the excess viscosity in series [1] and in series [2] were 0.992 ± 0.001 mPa·s and 0.125 mPa·s, respectively.

For orientation: Kd means the free concentration of one partner at which half of the binding sites on the other are occupied at equilibrium, for simple one-to-one binding. A lower Kd goes with tighter binding. A word on the stoichiometry N: it is the number of molecules, sites or subunits per partner or assembly. “Human adult cardiac troponin T fragment TnT1 (TnT1–158) (domain or fragment)”: the equilibrium dissociation constant (Kd) in series [3] worked out at 1300 nM; in [4], 1900 nM; in series [5] it was 900 nM; in series [6] it was 1520 nM; in series [7] it was 1890 nM; in series [8], 910 nM. Also, the results for the Kd in series [9] and in series [10] were 1900 nM and 2510 nM, respectively. The dH is -12.1 kcal/mol in series [3]; 2.1 kcal/mol in series [4]; -7.7 kcal/mol in series [5]; -8.83 kcal/mol in [6]; -14.4 kcal/mol in series [7]; -9.69 kcal/mol in series [8]. Further, the dH in series [9] was 2.51 kcal/mol; in series [10] it was -10.6 kcal/mol. The stoichiometry N in series [3] was found to be 1.05; in series [4] it was 1.06; in series [5] it was 0.69; in series [6], 0.857; in series [7], 0.775; in [8] it was 0.629. Moreover, the stoichiometry N in series [9] was 1.15; in series [10] it was 1.03.

In series [11], “Tropomyosin N-terminal fragment Tpm WT 1–133 (from UniProt P09493 1-133) (domain or fragment)” had a Kd of 1700 nM, a dH of -6.5 kcal/mol and a stoichiometry N of 1.07.

For the origin of these results see PMC9779223.
